Source: patent publication US20070105152
Where two headings read alike, the source gives them in different places.

T1: AcKSTGG(AcK)AP
T1 sequence: KSTGGKAP

T2: AcGG(AcK)APR
T2 sequence: GGKAPR

T3: AcTGG(AcK)AP
T3 sequence: TGGKAP

T4: AcGG(AcK)AP
T4 sequence: GGKAP

T5: AcTGG(AcK)APRK
T5 sequence: TGGKAPRK

T6: AcGG(AcK)APRK
T6 sequence: GGKAPRK

T7: AcSTGG(AcK)APR
T7 sequence: STGGKAPR

T8: AcGG(AcK)APRKQ
T8 sequence: GGKAPRKQ

T9: AcTGG(AcK)APR
T9 sequence: TGGKAPR

T10: AcSTGG(AcK)AP
T10 sequence: STGGKAP

T11: AcSTGG(AcK)AP
T11 chain: STGGKAP

T12: AcGG(AcK)APR
T12 chain: GGKAPR

T13: AcGG(AcK)APRKQ
T13 chain: GGKAPRKQ

T14: AcTGG(AcK)APRK
T14 chain: TGGKAPRK

T15: AcSTGG(AcK)APR
T15 chain: STGGKAPR

T16: AcGG(AcK)AP
T16 chain: GGKAP

T17: AcTGG(AcK)APR
T17 chain: TGGKAPR

T18: AcGG(AcK)APRK
T18 chain: GGKAPRK

T19: AcTGG(AcK)AP
T19 chain: TGGKAP

T20: AcKSTGG(AcK)AP
T20 chain: KSTGGKAP

B1: SIRT2 (protein)
chain: MAEPDPSHPLETQAGKVQEAQDSDSDSEGGAAGGEADMDFLRNLFSQTLSLGSQKERLLDELTLEGVARYMQSERCRRVICLVGAGISTSAGIPDFRSPSTGLYDNLEKYHLPYPEAIFEISYFKKHPEPFFALAKELYPGQFKPTICHYFMRLLKDKGLLLRCYTQNIDTLERIAGLEQEDLVEAHGTFYTSHCVSASCRHEYPLSWMKEKIFSEVTPKCEDCQSLVKPDIVFFGESLPARFFSCMQSDFLKVDLLLVMGTSLQVQPFASLISKAPLSTPRLLINKEKAGQSDPFLGMIMGLGGGMDFDSKKAYRDVAWLGECDQGCLALAELLGWKKELEDLVRREHASIDAQSGAGVPNPSTSASPKKSPPPAKDEARTTEREKPQ

Legend:
AcKSTGG(AcK)AP [1] = tested on: T1, AcKSTGG(AcK)AP
AcGG(AcK)APR [2] = tested on: T2, AcGG(AcK)APR
AcTGG(AcK)AP [3] = tested on: T3, AcTGG(AcK)AP
AcGG(AcK)AP [4] = tested on: T4, AcGG(AcK)AP
AcTGG(AcK)APRK [5] = tested on: T5, AcTGG(AcK)APRK
AcGG(AcK)APRK [6] = tested on: T6, AcGG(AcK)APRK
AcSTGG(AcK)APR [7] = tested on: T7, AcSTGG(AcK)APR
AcGG(AcK)APRKQ [8] = tested on: T8, AcGG(AcK)APRKQ
AcTGG(AcK)APR [9] = tested on: T9, AcTGG(AcK)APR
AcSTGG(AcK)AP [10] = tested on: T10, AcSTGG(AcK)AP
AcSTGG(AcK)AP [11] = target: T11, AcSTGG(AcK)AP
AcGG(AcK)APR [12] = target: T12, AcGG(AcK)APR
AcGG(AcK)APRKQ [13] = target: T13, AcGG(AcK)APRKQ
AcTGG(AcK)APRK [14] = target: T14, AcTGG(AcK)APRK
AcSTGG(AcK)APR [15] = target: T15, AcSTGG(AcK)APR
AcGG(AcK)AP [16] = target: T16, AcGG(AcK)AP
AcTGG(AcK)APR [17] = target: T17, AcTGG(AcK)APR
AcGG(AcK)APRK [18] = target: T18, AcGG(AcK)APRK
AcTGG(AcK)AP [19] = target: T19, AcTGG(AcK)AP
AcKSTGG(AcK)AP [20] = target: T20, AcKSTGG(AcK)AP

Molecule | Relative kcat/Km (relative to AcTGG(AcK)APRK = 1) (AcKSTGG(AcK)AP [1]) | Relative kcat/Km (relative to AcTGG(AcK)APRK = 1) (AcGG(AcK)APR [2]) | Relative kcat/Km (relative to AcTGG(AcK)APRK = 1) (AcTGG(AcK)AP [3]) | Relative kcat/Km (relative to AcTGG(AcK)APRK = 1) (AcGG(AcK)AP [4]) | Relative kcat/Km (relative to AcTGG(AcK)APRK = 1) (AcTGG(AcK)APRK [5]) | Relative kcat/Km (relative to AcTGG(AcK)APRK = 1) (AcGG(AcK)APRK [6]) | Relative kcat/Km (relative to AcTGG(AcK)APRK = 1) (AcSTGG(AcK)APR [7]) | Relative kcat/Km (relative to AcTGG(AcK)APRK = 1) (AcGG(AcK)APRKQ [8]) | Relative kcat/Km (relative to AcTGG(AcK)APRK = 1) (AcTGG(AcK)APR [9]) | Relative kcat/Km (relative to AcTGG(AcK)APRK = 1) (AcSTGG(AcK)AP [10]) | Relative kcat/Km (relative to AcTGG(AcK)APRK = 1) (AcSTGG(AcK)AP [11]) | Relative kcat/Km (relative to AcTGG(AcK)APRK = 1) (AcGG(AcK)APR [12]) | Relative kcat/Km (relative to AcTGG(AcK)APRK = 1) (AcGG(AcK)APRKQ [13]) | Relative kcat/Km (relative to AcTGG(AcK)APRK = 1) (AcTGG(AcK)APRK [14]) | Relative kcat/Km (relative to AcTGG(AcK)APRK = 1) (AcSTGG(AcK)APR [15]) | Relative kcat/Km (relative to AcTGG(AcK)APRK = 1) (AcGG(AcK)AP [16]) | Relative kcat/Km (relative to AcTGG(AcK)APRK = 1) (AcTGG(AcK)APR [17]) | Relative kcat/Km (relative to AcTGG(AcK)APRK = 1) (AcGG(AcK)APRK [18]) | Relative kcat/Km (relative to AcTGG(AcK)APRK = 1) (AcTGG(AcK)AP [19]) | Relative kcat/Km (relative to AcTGG(AcK)APRK = 1) (AcKSTGG(AcK)AP [20])
yeast Sir2 | 2.12 | 2.53 | 1.62 | 1.51 | 1 | 2.33 | 1.6 | 2.09 | 1.72 | 1.83 |  |  |  |  |  |  |  |  |  | 
Trypanosoma brucei Sir2 | 1.81 | 1.18 | 0.74 | 1.27 | 1 | 1.82 | 1.39 | 1.43 | 0.89 | 0.59 |  |  |  |  |  |  |  |  |  | 
B1 |  |  |  |  |  |  |  |  |  |  | 0.78 | 0.6 | 0.66 | 1 | 0.93 | 0.56 | 0.72 | 0.68 | 0.55 | 0.59
